This passage reports Kd results from article PMC11446271.

Series [1] concerns Pab1p (poly(A)-binding protein) (Saccharomyces cerevisiae). Nature of the series: single-molecule eIF1 dwell time, hyperbolic fit. The conditions noted are these: 5' cap, 3' poly(A) tail.
For series [2] the test system is unchanged. Nature of the series: EMSA. (In general: In EMSA bound probe runs differently from free probe, usually more slowly.)

For the substance PAB1 mRNA, capped and poly(A)-tailed, the Kd (commonly the equilibrium constant for the complex coming apart) in series [1] was 13 nM. That is a double-digit nanomolar value.

With PAB1 mRNA, non-polyadenylated, the dissociation constant (Kd) in series [2] was determined as 25 nM.
